Target: Drosophila melanogaster imaginal morphogenesis protein-late 2 protein (Imp-L2) (Drosophila melanogaster) (UniProt Q09024)
Assay: cross-linking; Sulfo-SDA-modified ligand (about 100 μg, 10–20 nmol) incubated with recombinant Imp-L2 (76 μg, about 3 nmol) overnight at 4°C, irradiated at 365 nm for 5 min; SDS-PAGE, western blot with anti-IGF-1, tryptic digest of the excised band and LC-MS/MS (Links, StavroX)

UniProt Q09024, sequence (Q09024 26-267): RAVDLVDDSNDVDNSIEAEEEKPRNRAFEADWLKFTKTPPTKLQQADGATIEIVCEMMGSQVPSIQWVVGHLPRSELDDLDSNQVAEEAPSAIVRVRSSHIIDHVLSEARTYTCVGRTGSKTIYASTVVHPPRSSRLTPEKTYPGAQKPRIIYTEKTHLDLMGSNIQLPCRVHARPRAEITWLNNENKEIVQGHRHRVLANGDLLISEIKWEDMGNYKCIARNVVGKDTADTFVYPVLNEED

- percent of Imp-L2 crosslinked: 10 to 20%
Substance: des(63-70)-IGF-1 (human IGF-1 lacking the C-terminal D domain amino acids PLKPAKSA, with an additional N-terminal Gly-1) (ligand)
